According to IntAct's records for PubMed 35512704:

B1: Speckle-type POZ protein (Homo sapiens), O43791 (parent)
chain: MSRVPSPPPPAEMSSGPVAESWCYTQIKVVKFSYMWTINNFSFCREEMGEVIKSSTFSSGANDKLKWCLRVNPKGLDEESKDYLSLYLLLVSCPKSEVRAKFKFSILNAKGEETKAMESQRAYRFVQGKDWGFKKFIRRDFLLDEANGLLPDDKLTLFCEVSVVQDSVNISGQNTMNMVKVPECRLADELGGLWENSRFTDCCLCVAGQEFQAHKAILAARSPVFSAMFEHEMEESKKNRVEINDVEPEVFKEMMCFIYTGKAPNLDKMADDLLAAADKYALERLKVMCEDALCSNLSVENAAEILILADLHSADQLKTQAVDFINYHASDVLETSGWKSMVVSHPHLVAEAYRSLASAQCPFLGPPRKRLKQS

Variants of: B1
Conditions: with ist1_human IST1, P53990
Sequence of ist1_human IST1, P53990 (P53990 whole entry): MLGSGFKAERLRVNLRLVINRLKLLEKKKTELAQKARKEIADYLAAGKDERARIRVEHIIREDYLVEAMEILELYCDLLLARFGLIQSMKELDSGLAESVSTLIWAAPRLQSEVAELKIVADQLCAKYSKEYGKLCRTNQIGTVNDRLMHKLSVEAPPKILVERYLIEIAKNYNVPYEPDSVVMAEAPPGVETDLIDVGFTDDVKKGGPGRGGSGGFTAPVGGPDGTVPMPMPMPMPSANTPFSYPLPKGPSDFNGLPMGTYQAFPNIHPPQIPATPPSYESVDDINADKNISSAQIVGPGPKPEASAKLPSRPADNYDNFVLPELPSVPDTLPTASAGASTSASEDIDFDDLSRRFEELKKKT

Variant	effect of a mutation on the interaction
MSRVPSPPPPAEMSSGPVAESWCYTQIKVVKFSYMWTINNFSFCREEMGEVIKSSTFSSGANDKLKWCLRVNPKGLDEESKDYLSLCLLLVSCPKSEVRAKFKFSILNAKGEETKAMESQRAYRFVQGKDWGFKKFIRRDFLLDEANGLLPDDKLTLFCEVSVVQDSVNISGQNTMNMVKVPECRLADELGGLWENSRFTDCCLCVAGQEFQAHKAILAARSPVFSAMFEHEMEESKKNRVEINDVEPEVFKEMMCFIYTGKAPNLDKMADDLLAAADKYALERLKVMCEDALCSNLSVENAAEILILADLHSADQLKTQAVDFINYHASDVLETSGWKSMVVSHPHLVAEAYRSLASAQCPFLGPPRKRLKQS [Y87C]	with no effect

Variants of: B1
Conditions: with jak1_human JAK1, P23458

Variant	effect of a mutation on the interaction
MSRVPSPPPPAEMSSGPVAESWCYTQIKVVKFSYMWTINNFSFCREEMGEVIKSSTFSSGANDKLKWCLRVNPKGLDEESKDYLSLCLLLVSCPKSEVRAKFKFSILNAKGEETKAMESQRAYRFVQGKDWGFKKFIRRDFLLDEANGLLPDDKLTLFCEVSVVQDSVNISGQNTMNMVKVPECRLADELGGLWENSRFTDCCLCVAGQEFQAHKAILAARSPVFSAMFEHEMEESKKNRVEINDVEPEVFKEMMCFIYTGKAPNLDKMADDLLAAADKYALERLKVMCEDALCSNLSVENAAEILILADLHSADQLKTQAVDFINYHASDVLETSGWKSMVVSHPHLVAEAYRSLASAQCPFLGPPRKRLKQS [Y87C]	with no effect

Variants of: B1
Conditions: with jak3_human JAK3, P52333

Variant	effect of a mutation on the interaction
MSRVPSPPPPAEMSSGPVAESWCYTQIKVVKFSYMWTINNFSFCREEMGEVIKSSTFSSGANDKLKWCLRVNPKGLDEESKDYLSLCLLLVSCPKSEVRAKFKFSILNAKGEETKAMESQRAYRFVQGKDWGFKKFIRRDFLLDEANGLLPDDKLTLFCEVSVVQDSVNISGQNTMNMVKVPECRLADELGGLWENSRFTDCCLCVAGQEFQAHKAILAARSPVFSAMFEHEMEESKKNRVEINDVEPEVFKEMMCFIYTGKAPNLDKMADDLLAAADKYALERLKVMCEDALCSNLSVENAAEILILADLHSADQLKTQAVDFINYHASDVLETSGWKSMVVSHPHLVAEAYRSLASAQCPFLGPPRKRLKQS [Y87C]	with no effect

Variants of: B1
Conditions: with kat2a_human KAT2A

Variant	effect of a mutation on the interaction
MSRVPSPPPPAEMSSGPVAESWCYTQIKVVKFSYMWTINNFSFCREEMGEVIKSSTFSSGANDKLKWCLRVNPKGLDEESKDYLSLCLLLVSCPKSEVRAKFKFSILNAKGEETKAMESQRAYRFVQGKDWGFKKFIRRDFLLDEANGLLPDDKLTLFCEVSVVQDSVNISGQNTMNMVKVPECRLADELGGLWENSRFTDCCLCVAGQEFQAHKAILAARSPVFSAMFEHEMEESKKNRVEINDVEPEVFKEMMCFIYTGKAPNLDKMADDLLAAADKYALERLKVMCEDALCSNLSVENAAEILILADLHSADQLKTQAVDFINYHASDVLETSGWKSMVVSHPHLVAEAYRSLASAQCPFLGPPRKRLKQS [Y87C]	with no effect

Variants of: B1
Conditions: with kdm5a_human KDM5A

Variant	effect of a mutation on the interaction
MSRVPSPPPPAEMSSGPVAESWCYTQIKVVKFSYMWTINNFSFCREEMGEVIKSSTFSSGANDKLKWCLRVNPKGLDEESKDYLSLCLLLVSCPKSEVRAKFKFSILNAKGEETKAMESQRAYRFVQGKDWGFKKFIRRDFLLDEANGLLPDDKLTLFCEVSVVQDSVNISGQNTMNMVKVPECRLADELGGLWENSRFTDCCLCVAGQEFQAHKAILAARSPVFSAMFEHEMEESKKNRVEINDVEPEVFKEMMCFIYTGKAPNLDKMADDLLAAADKYALERLKVMCEDALCSNLSVENAAEILILADLHSADQLKTQAVDFINYHASDVLETSGWKSMVVSHPHLVAEAYRSLASAQCPFLGPPRKRLKQS [Y87C]	with no effect

Variants of: B1
Conditions: with kdm5c_human KDM5C

Variant	effect of a mutation on the interaction
MSRVPSPPPPAEMSSGPVAESWCYTQIKVVKFSYMWTINNFSFCREEMGEVIKSSTFSSGANDKLKWCLRVNPKGLDEESKDYLSLCLLLVSCPKSEVRAKFKFSILNAKGEETKAMESQRAYRFVQGKDWGFKKFIRRDFLLDEANGLLPDDKLTLFCEVSVVQDSVNISGQNTMNMVKVPECRLADELGGLWENSRFTDCCLCVAGQEFQAHKAILAARSPVFSAMFEHEMEESKKNRVEINDVEPEVFKEMMCFIYTGKAPNLDKMADDLLAAADKYALERLKVMCEDALCSNLSVENAAEILILADLHSADQLKTQAVDFINYHASDVLETSGWKSMVVSHPHLVAEAYRSLASAQCPFLGPPRKRLKQS [Y87C]	with no effect

Variants of: B1
Conditions: with kdm6a_human KDM6A

Variant	effect of a mutation on the interaction
MSRVPSPPPPAEMSSGPVAESWCYTQIKVVKFSYMWTINNFSFCREEMGEVIKSSTFSSGANDKLKWCLRVNPKGLDEESKDYLSLCLLLVSCPKSEVRAKFKFSILNAKGEETKAMESQRAYRFVQGKDWGFKKFIRRDFLLDEANGLLPDDKLTLFCEVSVVQDSVNISGQNTMNMVKVPECRLADELGGLWENSRFTDCCLCVAGQEFQAHKAILAARSPVFSAMFEHEMEESKKNRVEINDVEPEVFKEMMCFIYTGKAPNLDKMADDLLAAADKYALERLKVMCEDALCSNLSVENAAEILILADLHSADQLKTQAVDFINYHASDVLETSGWKSMVVSHPHLVAEAYRSLASAQCPFLGPPRKRLKQS [Y87C]	with no effect

Variants of: B1
Conditions: with vgfr2_human KDR

Variant	effect of a mutation on the interaction
MSRVPSPPPPAEMSSGPVAESWCYTQIKVVKFSYMWTINNFSFCREEMGEVIKSSTFSSGANDKLKWCLRVNPKGLDEESKDYLSLCLLLVSCPKSEVRAKFKFSILNAKGEETKAMESQRAYRFVQGKDWGFKKFIRRDFLLDEANGLLPDDKLTLFCEVSVVQDSVNISGQNTMNMVKVPECRLADELGGLWENSRFTDCCLCVAGQEFQAHKAILAARSPVFSAMFEHEMEESKKNRVEINDVEPEVFKEMMCFIYTGKAPNLDKMADDLLAAADKYALERLKVMCEDALCSNLSVENAAEILILADLHSADQLKTQAVDFINYHASDVLETSGWKSMVVSHPHLVAEAYRSLASAQCPFLGPPRKRLKQS [Y87C]	with no effect

Variants of: B1
Conditions: with lims1_human LIMS1, P48059
Sequence of lims1_human LIMS1, P48059 (P48059 whole entry): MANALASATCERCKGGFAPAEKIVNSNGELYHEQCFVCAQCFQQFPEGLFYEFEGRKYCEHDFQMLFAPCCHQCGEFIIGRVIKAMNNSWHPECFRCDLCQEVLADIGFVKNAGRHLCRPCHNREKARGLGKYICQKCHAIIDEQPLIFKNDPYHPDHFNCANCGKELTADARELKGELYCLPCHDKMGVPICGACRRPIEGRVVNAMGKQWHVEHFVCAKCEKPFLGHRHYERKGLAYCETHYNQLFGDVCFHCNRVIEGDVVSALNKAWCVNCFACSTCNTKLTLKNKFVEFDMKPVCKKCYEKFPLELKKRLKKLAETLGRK

Variant	effect of a mutation on the interaction
MSRVPSPPPPAEMSSGPVAESWCYTQIKVVKFSYMWTINNFSFCREEMGEVIKSSTFSSGANDKLKWCLRVNPKGLDEESKDYLSLCLLLVSCPKSEVRAKFKFSILNAKGEETKAMESQRAYRFVQGKDWGFKKFIRRDFLLDEANGLLPDDKLTLFCEVSVVQDSVNISGQNTMNMVKVPECRLADELGGLWENSRFTDCCLCVAGQEFQAHKAILAARSPVFSAMFEHEMEESKKNRVEINDVEPEVFKEMMCFIYTGKAPNLDKMADDLLAAADKYALERLKVMCEDALCSNLSVENAAEILILADLHSADQLKTQAVDFINYHASDVLETSGWKSMVVSHPHLVAEAYRSLASAQCPFLGPPRKRLKQS [Y87C]	with no effect

Variants of: B1
Conditions: with maga6_human MAGEA6, P43360
Sequence of maga6_human MAGEA6, P43360 (P43360 whole entry): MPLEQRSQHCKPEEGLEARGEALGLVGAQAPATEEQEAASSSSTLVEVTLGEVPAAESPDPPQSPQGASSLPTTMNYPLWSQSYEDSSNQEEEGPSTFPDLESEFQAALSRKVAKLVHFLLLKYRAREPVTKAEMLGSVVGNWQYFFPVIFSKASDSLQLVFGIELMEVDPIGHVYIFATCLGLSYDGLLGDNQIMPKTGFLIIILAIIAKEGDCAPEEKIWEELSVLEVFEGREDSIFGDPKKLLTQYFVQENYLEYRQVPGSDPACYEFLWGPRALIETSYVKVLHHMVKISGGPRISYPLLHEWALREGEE

Variant	effect of a mutation on the interaction
MSRVPSPPPPAEMSSGPVAESWCYTQIKVVKFSYMWTINNFSFCREEMGEVIKSSTFSSGANDKLKWCLRVNPKGLDEESKDYLSLCLLLVSCPKSEVRAKFKFSILNAKGEETKAMESQRAYRFVQGKDWGFKKFIRRDFLLDEANGLLPDDKLTLFCEVSVVQDSVNISGQNTMNMVKVPECRLADELGGLWENSRFTDCCLCVAGQEFQAHKAILAARSPVFSAMFEHEMEESKKNRVEINDVEPEVFKEMMCFIYTGKAPNLDKMADDLLAAADKYALERLKVMCEDALCSNLSVENAAEILILADLHSADQLKTQAVDFINYHASDVLETSGWKSMVVSHPHLVAEAYRSLASAQCPFLGPPRKRLKQS [Y87C]	with no effect

Variants of: B1
Conditions: with m3k1_human MAP3K1, Q13233
Sequence of m3k1_human MAP3K1, Q13233 (Q13233 whole entry): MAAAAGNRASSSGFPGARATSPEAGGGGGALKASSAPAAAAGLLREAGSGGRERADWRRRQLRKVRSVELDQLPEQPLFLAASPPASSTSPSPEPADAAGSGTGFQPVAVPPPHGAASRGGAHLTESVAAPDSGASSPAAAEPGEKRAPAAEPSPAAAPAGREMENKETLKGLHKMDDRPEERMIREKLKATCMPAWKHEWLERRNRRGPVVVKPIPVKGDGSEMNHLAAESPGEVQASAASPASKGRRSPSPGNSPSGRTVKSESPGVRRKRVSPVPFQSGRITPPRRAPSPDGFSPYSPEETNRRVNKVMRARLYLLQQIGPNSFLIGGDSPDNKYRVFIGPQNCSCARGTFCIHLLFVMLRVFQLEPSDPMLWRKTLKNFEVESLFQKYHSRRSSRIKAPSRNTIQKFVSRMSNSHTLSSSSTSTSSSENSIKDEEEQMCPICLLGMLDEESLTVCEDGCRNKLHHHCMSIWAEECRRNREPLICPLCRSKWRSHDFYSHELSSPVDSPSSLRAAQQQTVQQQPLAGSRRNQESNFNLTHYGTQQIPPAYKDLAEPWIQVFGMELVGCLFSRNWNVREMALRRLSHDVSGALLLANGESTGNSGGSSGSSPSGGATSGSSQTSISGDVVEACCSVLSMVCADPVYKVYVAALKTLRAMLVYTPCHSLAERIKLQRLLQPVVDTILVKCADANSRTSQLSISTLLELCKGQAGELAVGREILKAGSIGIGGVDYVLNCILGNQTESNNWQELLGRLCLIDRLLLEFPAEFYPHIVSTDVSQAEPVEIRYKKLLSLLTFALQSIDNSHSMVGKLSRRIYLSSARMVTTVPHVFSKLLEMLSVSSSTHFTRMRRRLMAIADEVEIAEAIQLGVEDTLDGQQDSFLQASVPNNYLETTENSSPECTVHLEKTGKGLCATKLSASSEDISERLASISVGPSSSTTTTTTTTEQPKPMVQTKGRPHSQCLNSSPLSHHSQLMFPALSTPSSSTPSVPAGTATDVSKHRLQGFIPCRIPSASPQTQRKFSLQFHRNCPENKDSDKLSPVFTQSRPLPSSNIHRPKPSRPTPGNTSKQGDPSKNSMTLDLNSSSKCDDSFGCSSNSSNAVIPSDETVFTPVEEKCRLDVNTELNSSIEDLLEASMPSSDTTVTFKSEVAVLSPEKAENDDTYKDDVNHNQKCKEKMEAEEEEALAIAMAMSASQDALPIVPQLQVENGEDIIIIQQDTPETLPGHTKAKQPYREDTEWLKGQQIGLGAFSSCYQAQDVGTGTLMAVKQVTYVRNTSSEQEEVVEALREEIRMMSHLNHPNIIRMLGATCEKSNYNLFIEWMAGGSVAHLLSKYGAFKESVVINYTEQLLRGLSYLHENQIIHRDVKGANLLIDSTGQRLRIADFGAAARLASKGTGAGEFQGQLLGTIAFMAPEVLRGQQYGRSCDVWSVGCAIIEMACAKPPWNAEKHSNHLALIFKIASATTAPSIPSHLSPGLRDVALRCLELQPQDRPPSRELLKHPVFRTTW

Variant	effect of a mutation on the interaction
MSRVPSPPPPAEMSSGPVAESWCYTQIKVVKFSYMWTINNFSFCREEMGEVIKSSTFSSGANDKLKWCLRVNPKGLDEESKDYLSLCLLLVSCPKSEVRAKFKFSILNAKGEETKAMESQRAYRFVQGKDWGFKKFIRRDFLLDEANGLLPDDKLTLFCEVSVVQDSVNISGQNTMNMVKVPECRLADELGGLWENSRFTDCCLCVAGQEFQAHKAILAARSPVFSAMFEHEMEESKKNRVEINDVEPEVFKEMMCFIYTGKAPNLDKMADDLLAAADKYALERLKVMCEDALCSNLSVENAAEILILADLHSADQLKTQAVDFINYHASDVLETSGWKSMVVSHPHLVAEAYRSLASAQCPFLGPPRKRLKQS [Y87C]	with no effect

Variants of: B1
Conditions: with mk10_human MAPK10, P53779
Sequence of mk10_human MAPK10, P53779 (P53779 whole entry): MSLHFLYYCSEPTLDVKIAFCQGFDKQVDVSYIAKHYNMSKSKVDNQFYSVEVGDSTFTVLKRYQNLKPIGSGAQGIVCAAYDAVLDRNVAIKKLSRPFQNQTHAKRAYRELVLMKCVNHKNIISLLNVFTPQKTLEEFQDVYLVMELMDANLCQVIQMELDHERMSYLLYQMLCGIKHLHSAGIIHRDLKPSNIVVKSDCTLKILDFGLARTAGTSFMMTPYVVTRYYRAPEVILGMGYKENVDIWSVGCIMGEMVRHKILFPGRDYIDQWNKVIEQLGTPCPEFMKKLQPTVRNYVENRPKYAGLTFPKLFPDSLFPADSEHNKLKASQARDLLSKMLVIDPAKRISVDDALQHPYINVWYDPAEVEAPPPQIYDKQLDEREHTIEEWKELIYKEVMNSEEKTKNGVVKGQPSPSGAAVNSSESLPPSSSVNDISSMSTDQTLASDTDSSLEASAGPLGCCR

Variant	effect of a mutation on the interaction
MSRVPSPPPPAEMSSGPVAESWCYTQIKVVKFSYMWTINNFSFCREEMGEVIKSSTFSSGANDKLKWCLRVNPKGLDEESKDYLSLCLLLVSCPKSEVRAKFKFSILNAKGEETKAMESQRAYRFVQGKDWGFKKFIRRDFLLDEANGLLPDDKLTLFCEVSVVQDSVNISGQNTMNMVKVPECRLADELGGLWENSRFTDCCLCVAGQEFQAHKAILAARSPVFSAMFEHEMEESKKNRVEINDVEPEVFKEMMCFIYTGKAPNLDKMADDLLAAADKYALERLKVMCEDALCSNLSVENAAEILILADLHSADQLKTQAVDFINYHASDVLETSGWKSMVVSHPHLVAEAYRSLASAQCPFLGPPRKRLKQS [Y87C]	with no effect

Variants of: B1
Conditions: with mk14_human MAPK14, Q16539
Sequence of mk14_human MAPK14, Q16539 (Q16539 whole entry): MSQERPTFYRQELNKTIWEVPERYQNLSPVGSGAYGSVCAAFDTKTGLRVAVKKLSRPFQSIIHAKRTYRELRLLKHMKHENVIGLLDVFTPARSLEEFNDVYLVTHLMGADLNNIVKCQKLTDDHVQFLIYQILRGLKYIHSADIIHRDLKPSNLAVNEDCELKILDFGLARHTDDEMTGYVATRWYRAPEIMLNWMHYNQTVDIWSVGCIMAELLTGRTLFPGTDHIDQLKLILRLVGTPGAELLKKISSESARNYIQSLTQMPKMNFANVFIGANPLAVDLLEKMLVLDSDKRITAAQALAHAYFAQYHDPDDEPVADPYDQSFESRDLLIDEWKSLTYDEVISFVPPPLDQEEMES

Variant	effect of a mutation on the interaction
MSRVPSPPPPAEMSSGPVAESWCYTQIKVVKFSYMWTINNFSFCREEMGEVIKSSTFSSGANDKLKWCLRVNPKGLDEESKDYLSLCLLLVSCPKSEVRAKFKFSILNAKGEETKAMESQRAYRFVQGKDWGFKKFIRRDFLLDEANGLLPDDKLTLFCEVSVVQDSVNISGQNTMNMVKVPECRLADELGGLWENSRFTDCCLCVAGQEFQAHKAILAARSPVFSAMFEHEMEESKKNRVEINDVEPEVFKEMMCFIYTGKAPNLDKMADDLLAAADKYALERLKVMCEDALCSNLSVENAAEILILADLHSADQLKTQAVDFINYHASDVLETSGWKSMVVSHPHLVAEAYRSLASAQCPFLGPPRKRLKQS [Y87C]	with no effect

Variants of: B1
Conditions: with mk03_human MAPK3, P27361
Sequence of mk03_human MAPK3, P27361 (P27361 whole entry): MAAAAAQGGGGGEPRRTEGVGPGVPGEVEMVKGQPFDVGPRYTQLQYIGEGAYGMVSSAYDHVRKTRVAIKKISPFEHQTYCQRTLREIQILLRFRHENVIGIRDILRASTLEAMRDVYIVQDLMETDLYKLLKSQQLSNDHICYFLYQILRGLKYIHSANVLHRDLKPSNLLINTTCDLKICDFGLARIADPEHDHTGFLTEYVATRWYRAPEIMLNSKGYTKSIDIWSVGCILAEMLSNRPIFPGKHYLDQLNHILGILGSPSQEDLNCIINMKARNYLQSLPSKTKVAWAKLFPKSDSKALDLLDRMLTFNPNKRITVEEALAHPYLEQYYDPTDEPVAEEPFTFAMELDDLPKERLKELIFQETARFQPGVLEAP

Variant	effect of a mutation on the interaction
MSRVPSPPPPAEMSSGPVAESWCYTQIKVVKFSYMWTINNFSFCREEMGEVIKSSTFSSGANDKLKWCLRVNPKGLDEESKDYLSLCLLLVSCPKSEVRAKFKFSILNAKGEETKAMESQRAYRFVQGKDWGFKKFIRRDFLLDEANGLLPDDKLTLFCEVSVVQDSVNISGQNTMNMVKVPECRLADELGGLWENSRFTDCCLCVAGQEFQAHKAILAARSPVFSAMFEHEMEESKKNRVEINDVEPEVFKEMMCFIYTGKAPNLDKMADDLLAAADKYALERLKVMCEDALCSNLSVENAAEILILADLHSADQLKTQAVDFINYHASDVLETSGWKSMVVSHPHLVAEAYRSLASAQCPFLGPPRKRLKQS [Y87C]	with no effect

Variants of: B1
Conditions: with mk04_human MAPK4, P31152
Sequence of mk04_human MAPK4, P31152 (P31152 whole entry): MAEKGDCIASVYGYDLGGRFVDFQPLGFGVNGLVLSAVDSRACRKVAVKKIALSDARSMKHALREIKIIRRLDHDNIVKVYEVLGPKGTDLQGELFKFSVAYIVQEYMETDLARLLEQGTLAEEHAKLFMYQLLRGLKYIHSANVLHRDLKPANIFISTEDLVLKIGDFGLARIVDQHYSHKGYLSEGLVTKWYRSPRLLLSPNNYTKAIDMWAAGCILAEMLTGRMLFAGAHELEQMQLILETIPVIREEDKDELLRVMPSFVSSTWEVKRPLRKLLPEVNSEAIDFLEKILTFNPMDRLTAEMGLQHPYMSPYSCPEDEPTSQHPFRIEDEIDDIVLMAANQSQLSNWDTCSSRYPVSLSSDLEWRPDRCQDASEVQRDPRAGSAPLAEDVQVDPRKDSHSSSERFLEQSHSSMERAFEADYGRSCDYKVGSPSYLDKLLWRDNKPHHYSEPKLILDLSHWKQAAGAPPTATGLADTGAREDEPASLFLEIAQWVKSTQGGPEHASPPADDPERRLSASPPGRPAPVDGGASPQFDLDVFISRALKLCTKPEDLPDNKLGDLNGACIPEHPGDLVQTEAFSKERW

Variant	effect of a mutation on the interaction
MSRVPSPPPPAEMSSGPVAESWCYTQIKVVKFSYMWTINNFSFCREEMGEVIKSSTFSSGANDKLKWCLRVNPKGLDEESKDYLSLCLLLVSCPKSEVRAKFKFSILNAKGEETKAMESQRAYRFVQGKDWGFKKFIRRDFLLDEANGLLPDDKLTLFCEVSVVQDSVNISGQNTMNMVKVPECRLADELGGLWENSRFTDCCLCVAGQEFQAHKAILAARSPVFSAMFEHEMEESKKNRVEINDVEPEVFKEMMCFIYTGKAPNLDKMADDLLAAADKYALERLKVMCEDALCSNLSVENAAEILILADLHSADQLKTQAVDFINYHASDVLETSGWKSMVVSHPHLVAEAYRSLASAQCPFLGPPRKRLKQS [Y87C]	with no effect
